We go through one protein from FireProtDB (doi:10.1021/bi00125a013).

For the data set the following is noted: Bacillus amyloliquefaciens, 20 °C, Urea, Fluorescence, whole UniProt chain shown.
The mark [1] stands for this setting: pH 2.76, diglycine 30 mM, NaCl 0.5 M.
The mark [2] stands for this setting: pH 2.82, diglycine 30 mM, NaCl 0.1 M.

B1: Ribonuclease wild type, P00648 (protein)
chain: MMKMEGIALKKRLSWISVCLLVLVSAAGMLFSTAAKTETSSHKAHTEAQVINTFDGVADYLQTYHKLPDNYITKSEAQALGWVASKGNLADVAPGKSIGGDIFSNREGKLPGKSGRTWREADINYTSGFRNSDRILYSSDWLIYKTTDHYQTFTKIR
With B1, the denaturant m value reads like this: (pH 2.5, diglycine 100 mM) 3.22 kcal/mol/M; under setting [1], 2.62 kcal/mol/M; under setting [2], 2.97 kcal/mol/M; (pH 2.87, diglycine 30 mM) 3.19 kcal/mol/M; (pH 2.98, diglycine 100 mM) 3.28 kcal/mol/M. The “denaturant midpoint (higher = more stable)” value reads like this: (pH 2.5, diglycine 100 mM) 0.52 M; under setting [1], 1.61 M; under setting [2], 1.21 M; (pH 2.87, diglycine 30 mM) 1.14 M; (pH 2.98, diglycine 100 mM) 1.39 M. Moreover, the unfolding free energy amounted to 1.66 kcal/mol (pH 2.5, diglycine 100 mM); 4.2 kcal/mol under setting [1]; 3.58 kcal/mol under setting [2]; 3.63 kcal/mol (pH 2.87, diglycine 30 mM); 4.55 kcal/mol (pH 2.98, diglycine 100 mM).
